Measurements from the Human Domainome abundance scans (Beltran et al. 2025).
± gives the uncertainty stated by the source.

B1: Pyruvate dehydrogenase protein X component, mitochondrial, residues 181 to 227; numbered along this chain, O00330 (parent)
chain: RFRLSPAARNILEKHSLDASQGTATGPRGIFTKEDALKLVQLKQTGK
B2: Chromodomain-helicase-DNA-binding protein 5, residues 411 to 463; numbered along this chain, Q8TDI0 (parent)
chain: EEDDHMEFCRVCKDGGELLCCDACPSSYHLHCLNPPLPEIPNGEWLCPRCTCP

Variants of: B1
Assay: abundance fitness (aPCA) (normalised: wild type 0, dead -1); higher = more abundant; growth selection in yeast, the domain comes from the species named
Conditions: Homo sapiens

Abundance fitness: each site, then its substitutions
K43: Q -0.057 ± 0.05 | R -0.245 ± 0.045 | S 0.013 ± 0.064 | V -0.28 ± 0.057 | W -0.608 ± 0.15 | Y -0.193 ± 0.091
Q44: A -0.008 ± 0.045 | D -0.262 ± 0.12 | E 0.038 ± 0.076 | F -0.328 ± 0.049 | H -0.152 ± 0.095 | I 0.039 ± 0.093 | K 0.114 ± 0.094 | L -0.131 ± 0.053 | M -0.389 ± 0.12 | N -0.337 ± 0.14 | P -0.516 ± 0.093 | R -0.14 ± 0.061 | S -0.068 ± 0.082 | T -0.451 ± 0.13 | V -0.133 ± 0.044 | W -0.641 ± 0.14 | Y -0.028 ± 0.11
T45: C -0.217 ± 0.085 | D 0.07 ± 0.11 | F -0.147 ± 0.25 | G 0.166 ± 0.057 | H -0.189 ± 0.13 | I -0.428 ± 0.15 | K -0.379 ± 0.11 | L -0.146 ± 0.09 | M -0.211 ± 0.088 | N 0.096 ± 0.12 | P -0.333 ± 0.11 | Q -0.209 ± 0.14 | R -0.023 ± 0.058 | S 0.167 ± 0.052 | V -0.156 ± 0.053 | W -0.276 ± 0.075
G46: A -0.323 ± 0.095 | C 0.022 ± 0.093 | D -0.343 ± 0.15 | E 0.122 ± 0.12 | F -0.464 ± 0.31 | H 0.38 ± 0.14 | I -0.689 ± 0.2 | K -0.375 ± 0.13 | L -0.268 ± 0.071 | M -0.042 ± 0.12 | P -0.469 ± 0.13 | Q 0.249 ± 0.14 | R -0.105 ± 0.05 | S -0.05 ± 0.06 | T -0.037 ± 0.059 | V -0.207 ± 0.069 | W -0.553 ± 0.17 | Y 0.219 ± 0.18
K47: C -0.003 ± 0.25 | D -0.532 ± 0.43 | E 0.284 ± 0.2 | H -0.156 ± 0.48 | M 0.312 ± 0.15 | N -0.751 ± 0.36 | Q 0.539 ± 0.26 | R -0.293 ± 0.35 | T -0.774 ± 0.48 | Y 0.095 ± 0.15

Variants of: B2
Assay: as above
Conditions: Homo sapiens

Abundance fitness of substitutions, site by site:
E1: A -0.518 ± 0.1 | C -0.893 ± 0.47 | D -0.455 ± 0.085 | G -0.304 ± 0.044 | I 0.425 ± 0.27 | K 0.044 ± 0.13 | N 0.264 ± 0.15 | P -0.803 ± 0.27 | R -0.554 ± 0.16
E2: A -0.194 ± 0.091 | C -0.398 ± 0.14 | D -0.565 ± 0.19 | G -0.131 ± 0.054 | H -0.261 ± 0.13 | I 0.392 ± 0.13 | K -0.157 ± 0.14 | L -0.038 ± 0.062 | M -0.669 ± 0.4 | P -0.228 ± 0.088 | Q -0.224 ± 0.14 | R -0.042 ± 0.085 | S -0.062 ± 0.12 | T 0.011 ± 0.12 | V -0.125 ± 0.081 | W -0.314 ± 0.13
D3: A 0.028 ± 0.06 | C -0.763 ± 0.065 | E 0.136 ± 0.082 | F 0.357 ± 0.045 | G 0.105 ± 0.045 | H -0.015 ± 0.046 | I 0.36 ± 0.07 | N 0.168 ± 0.069 | Q 0.105 ± 0.047 | R 0.14 ± 0.04 | S 0.155 ± 0.044 | T 0.205 ± 0.05 | V 0.114 ± 0.054 | Y 0.189 ± 0.065
D4: A -0.186 ± 0.041 | C 0.203 ± 0.066 | E -0.131 ± 0.043 | F 0.263 ± 0.047 | G -0.425 ± 0.045 | H 0.17 ± 0.044 | I 0.184 ± 0.063 | K 0.184 ± 0.047 | L 0.11 ± 0.042 | M 0.156 ± 0.043 | N 0.288 ± 0.043 | P 0.024 ± 0.041 | R 0.048 ± 0.041 | S -0.081 ± 0.041 | T 0.216 ± 0.043 | V -0.14 ± 0.042 | W 0.005 ± 0.047 | Y 0.252 ± 0.077
H5: A -0.26 ± 0.042 | C -0.319 ± 0.094 | D -0.177 ± 0.076 | E -0.476 ± 0.069 | F 0.067 ± 0.053 | G -0.246 ± 0.043 | I -0.02 ± 0.067 | K 0.023 ± 0.042 | L -0.223 ± 0.041 | M -0.223 ± 0.043 | N 0.117 ± 0.064 | Q -0.028 ± 0.049 | R -0.089 ± 0.041 | S -0.197 ± 0.047 | T -0.065 ± 0.038 | V -0.5 ± 0.041 | W -0.214 ± 0.043 | Y -0.058 ± 0.048
M6: A 0.059 ± 0.074 | C -0.069 ± 0.065 | D -0.228 ± 0.095 | E -0.14 ± 0.088 | F 0.084 ± 0.092 | G -0.09 ± 0.066 | H -0.279 ± 0.19 | I 0.012 ± 0.13 | K 0.172 ± 0.08 | L -0.121 ± 0.061 | N 0.135 ± 0.094 | P -0.03 ± 0.09 | R -0.045 ± 0.056 | S -0.233 ± 0.081 | T 0.136 ± 0.096 | V -0.077 ± 0.071 | W -0.174 ± 0.076 | Y -0.401 ± 0.099
E7: A -0.031 ± 0.083 | C 0.095 ± 0.13 | D 0.031 ± 0.085 | F -0.224 ± 0.17 | G -0.079 ± 0.052 | H -0.278 ± 0.11 | I -0.123 ± 0.074 | K -0.316 ± 0.094 | L -0.131 ± 0.065 | M -0.378 ± 0.11 | N -0.07 ± 0.12 | P -0.368 ± 0.07 | Q -0.332 ± 0.12 | R -0.027 ± 0.074 | S -0.215 ± 0.084 | V 0.063 ± 0.064 | W -0.247 ± 0.067 | Y -0.527 ± 0.17
F8: A -0.017 ± 0.066 | C -0.242 ± 0.097 | D -0.138 ± 0.077 | E -0.135 ± 0.083 | G 0.033 ± 0.044 | H -0.163 ± 0.1 | I -0.347 ± 0.12 | K -0.409 ± 0.12 | L 0.015 ± 0.065 | M -0.131 ± 0.075 | N 0.024 ± 0.11 | P -0.261 ± 0.081 | Q -0.17 ± 0.051 | R -0.051 ± 0.045 | S -0.099 ± 0.073 | T 0.023 ± 0.077 | V -0.152 ± 0.076 | W -0.346 ± 0.083 | Y 0.033 ± 0.088
C9: D -0.595 ± 0.1 | F -0.715 ± 0.18 | G -0.687 ± 0.068 | H -1.5 ± 0.4 | I -1.05 ± 0.25 | K -0.438 ± 0.074 | L -0.861 ± 0.078 | N -0.735 ± 0.13 | P -0.94 ± 0.13 | Q -0.771 ± 0.087 | R -0.629 ± 0.062 | S -0.807 ± 0.072 | T -0.56 ± 0.074 | V -1.09 ± 0.069 | Y -0.977 ± 0.068
R10: A -0.219 ± 0.075 | C -0.296 ± 0.087 | D -0.119 ± 0.053 | F 0.178 ± 0.12 | G -0.035 ± 0.053 | H -0.028 ± 0.12 | I -0.089 ± 0.086 | K -0.218 ± 0.12 | L -0.06 ± 0.056 | N 0.026 ± 0.11 | P -0.413 ± 0.088 | Q -0.106 ± 0.11 | S -0.089 ± 0.055 | T 0.012 ± 0.086 | V -0.25 ± 0.065 | W -0.212 ± 0.086 | Y 0.037 ± 0.061
V11: A -0.276 ± 0.058 | C -0.275 ± 0.11 | D 0.062 ± 0.081 | E 0.18 ± 0.076 | F -0.111 ± 0.1 | G 0.046 ± 0.053 | H 0.033 ± 0.054 | I 0.069 ± 0.061 | K 0.122 ± 0.09 | L -0.1 ± 0.053 | M -0.008 ± 0.058 | N -0.131 ± 0.15 | P -0.795 ± 0.12 | Q -0.012 ± 0.1 | R -0.113 ± 0.058 | S -0.118 ± 0.058 | W -0.193 ± 0.052 | Y -0.056 ± 0.076
C12: A -0.963 ± 0.061 | D -0.574 ± 0.048 | E -0.504 ± 0.049 | F -0.756 ± 0.21 | G -0.66 ± 0.066 | I -0.601 ± 0.095 | K -0.684 ± 0.12 | L -0.971 ± 0.079 | M -0.923 ± 0.071 | N -0.852 ± 0.21 | P -0.699 ± 0.1 | Q -0.938 ± 0.19 | R -0.783 ± 0.082 | S -0.947 ± 0.07 | T -0.581 ± 0.099 | V -0.828 ± 0.088 | W -0.552 ± 0.11
K13: A 0.015 ± 0.064 | C 0.021 ± 0.098 | D 0.01 ± 0.051 | E 0.142 ± 0.078 | F -0.546 ± 0.1 | G -0.008 ± 0.051 | H -0.265 ± 0.074 | I -0.644 ± 0.22 | L -0.206 ± 0.047 | M -0.18 ± 0.071 | N 0.075 ± 0.1 | R -0.068 ± 0.062 | S -0.309 ± 0.06 | T -0.311 ± 0.046 | W -0.299 ± 0.059 | Y -0.368 ± 0.12
D14: C -0.291 ± 0.083 | E 0.059 ± 0.13 | G 0.086 ± 0.085 | H -0.037 ± 0.11 | I -0.519 ± 0.15 | K -0.133 ± 0.1 | L -0.153 ± 0.053 | M -0.051 ± 0.09 | N -0.061 ± 0.048 | P -0.984 ± 0.17 | Q -0.2 ± 0.18 | S -0.17 ± 0.073 | V -0.157 ± 0.12 | W -0.232 ± 0.096 | Y -0.452 ± 0.15
G15: A 0.07 ± 0.084 | C -0.517 ± 0.12 | D 0.098 ± 0.095 | E -0.224 ± 0.13 | F 0.079 ± 0.12 | H -0.159 ± 0.11 | I -0.112 ± 0.14 | K 0.191 ± 0.097 | L -0.151 ± 0.064 | M -0.165 ± 0.12 | N -0.359 ± 0.12 | Q 0.047 ± 0.1 | R 0.087 ± 0.058 | T 0.036 ± 0.062 | V -0.061 ± 0.092 | W -0.087 ± 0.09
G16: A -0.629 ± 0.17 | C -0.183 ± 0.21 | D -0.003 ± 0.14 | E 0.411 ± 0.12 | I -0.145 ± 0.32 | K -0.482 ± 0.16 | L -0.28 ± 0.078 | M -0.301 ± 0.13 | N -0.369 ± 0.4 | P -0.832 ± 0.15 | R -0.518 ± 0.14 | S -0.023 ± 0.11 | V -0.36 ± 0.063
E17: A -0.063 ± 0.043 | C -0.187 ± 0.074 | D -0.276 ± 0.074 | G -0.171 ± 0.068 | H -0.138 ± 0.041 | I -0.102 ± 0.045 | K 0.007 ± 0.068 | L -0.27 ± 0.051 | M -0.13 ± 0.059 | N -0.063 ± 0.061
